One molecule from US20060153851A1, “CLASP proteins” (ARBOR VITA CORPORATION, published 2006) can be followed below.

One assay has as its target GST-DLG1 fusion protein (Homo sapiens (Human), UniProt Q12959). The experiment in a line: varying concentrations of biotinylated peptide on plate-bound GST fusion, streptavidin-HRP, fit to a saturation binding curve (FIG. 9B). As to the method:
(§1) 20 μM biotinylated synthetic peptide corresponding to the C-terminal 20 amino acids of CLASP-2 was reacted with the indicated plate bound GST fusion proteins (none=no GST fusion protein coated onto plate). Error bars indicate standard deviation of duplicate measurements. B. Affinity of CLASP 2-PDZ interactions. Varying concentrations of biotinylated CLASP-2 peptide were reacted with plate bound GST alone, GST-DLG1, GST-NeDLG, and GST-PSD95 fusion proteins. The binding to GST alone (<0.1 OD units) was subtracted from the binding to the fusion proteins and the remaining signal was divided by the signal observed upon addition of 30 μM CLASP-2 peptide to each PDZ domain-containing protein (0.4-1.0 OD units) and plotted. […] Data are means of duplicate data points, with standard errors between duplicate data points <10%. C. Inhibition of CLASP-2-PDZ binding. 5 μM biotinylated synthetic peptide corresponding to the C-terminal 20 amino acids of CLASP-2 was reacted with the indicated, plate-bound PDZ domain-containing GST fusion proteins in the presence or absence of 100 μM competitor peptide. CLASP-2 Inhibitor refers to a synthetic peptide composed of the eight C-terminal amino acids of CLASP-2. KV1.3 Inhibitor refers to a synthetic peptide composed of the 19 C-terminal amino acids of KV1.3, a lymphocyte potassium channel. The amino acid sequence of the KV1.3 inhibitor is […]. D. Inhibition of KV1.3-PDZ binding. 5 μM biotinylated synthetic peptide corresponding to the C-terminal 19 amino acids of KV1.3 was reacted with the indicated, plate-bound PDZ-domain containing GST fusion proteins in the presence or absence of 100 μM CLASP-2 Inhibitor (see FIG. 9C legend).
(§2) The binding of a biotinylated carboxyl-terminal peptide to a GST-PDZ fusion protein is measured as follows: [0470] (1) GST fusion protein containing one or more PDZ domain(s) is coated onto a protein-binding surface. […]

In another assay the target is GST-PSD95 fusion protein (Homo sapiens (Human), UniProt P78352). The assay is described as above. How it is done: as §1, §2
The target of assay [1] is T1, GST-NeDLG fusion protein (human, UniProt Q92796).
T1 sequence: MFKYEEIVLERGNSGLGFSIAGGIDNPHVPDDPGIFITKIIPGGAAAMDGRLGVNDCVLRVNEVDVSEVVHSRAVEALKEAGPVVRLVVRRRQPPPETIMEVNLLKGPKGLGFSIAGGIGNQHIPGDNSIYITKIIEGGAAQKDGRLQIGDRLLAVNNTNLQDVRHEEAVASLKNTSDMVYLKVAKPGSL
The description is as above. How it is done:
as §1, §2

Assay [2] deals with T1, GST-NeDLG fusion protein. The experiment in a line: biotinylated peptide titration on plate-bound GST fusion (FIG. 9B). As to the method: 20 μM biotinylated synthetic peptide corresponding to the C-terminal 20 amino acids of CLASP-2 was reacted with the indicated plate bound GST fusion proteins (none=no GST fusion protein coated onto plate). Error bars indicate standard deviation of duplicate measurements. B. Affinity of CLASP 2-PDZ interactions. Varying concentrations of biotinylated CLASP-2 peptide were reacted with plate bound GST alone, GST-DLG1, GST-NeDLG, and GST-PSD95 fusion proteins. The binding to GST alone (<0.1 OD units) was subtracted from the binding to the fusion proteins and the remaining signal was divided by the signal observed upon addition of 30 μM CLASP-2 peptide to each PDZ domain-containing protein (0.4-1.0 OD units) and plotted. […] Data are means of duplicate data points, with standard errors between duplicate data points <10%. C. Inhibition of CLASP-2-PDZ binding. 5 μM biotinylated synthetic peptide corresponding to the C-terminal 20 amino acids of CLASP-2 was reacted with the indicated, plate-bound PDZ domain-containing GST fusion proteins in the presence or absence of 100 μM competitor peptide. CLASP-2 Inhibitor refers to a synthetic peptide composed of the eight C-terminal amino acids of CLASP-2. […]
The binding of a biotinylated carboxyl-terminal peptide to a GST-PDZ fusion protein is measured as follows: [0470] […]

B1: biotinylated synthetic peptide corresponding to the C-terminal 20 amino acids of CLASP-2 (peptide)
peptide: VLHHHQNPEFYDEIKIELPTQLHEKHHLLLTFFHVSCDNSSKGSTKKRDVVETQVGYSWLPLLKDGRVVTSEQHIPVSANLPSGYLGYQELGMGRHYGPEIKWVDGGKPLLKISTHLVSTVYTQDQHLHNFFQYCQKTESGAQALGNELVKYLKSLHAMEGHVMIAFLPTILNQLFRVLTRATQEEVAVNVTRVIIHVVAQCHEEGLESHLRSYVKYAYKAEPYVASEYKTVHEELTKSMTTILKPSADFLTSNKLLRYSWFFFDVLIKSMAQHLIENSKVKLLRNQRFPASYHHAAETVVNMLMPHITQKFGDNPEASKNANHSLAVFIKRCFTFMDRGFVFKQINNYISCFAPGDPKTLFEYKFEFLRVVCNHEHYIPLNLPMPFGKGRIQRYQDLQLDYSLTDEFCRNHFLVGLLLREVGTALQEFREVRLIAISVLKNLLIKHSFDDRYASRSHQARIATLYLPLFGLLIENVQRINVRDVSPFPVNAGMTVKDESLALPAVNPLVTPQKGSTLDNSLHKDLLGAISGIASPYTTSTPNINSVRNADSRGSLISTDSGNSLPERNSEKSNSLDKHQQSSTLGNSVVRCDKLDQSEIKSLLMCFLYILKSMSDDALFTYWNKASTSELMDFFTISEVCLHQFQYMGKRYIARNQEGLGPIVHDRKSQTLPVSRNRTGMMHARLQQLGSLDNSLTFNHSYGHSDADVLHQSLLEANIATEVCLTALDTLSLFTLAFKNQLLADHGHNPLMKKVFDVYLCFLQKHQSETALKNVFTALRSLIYKFPSTFYEGRADMCAALCYEILKCCNSKLSSIRTEASQLLYFLMRNNFDYTGKKSFVRTHLQVIISVSQLIADVVGIGETRFQQSLSIINNCANSDRLIKHTSFSSDVKDLTKRIRTVLMATAQMKEHENDPEMLVDLQYSLAKSYASTPELRKTWLDSMARIHVKNGDLSEAAMCYVHVTALVAEYLTRKGVFRQGCTAFRVITPNIDEEASMMEDVGMQDVHFNEDVLMELLEQCADGLWKAERYELIADIYKLIIPIYEKRRDFFEDEDGKEYIYKEPKLTPLSEISQRLLKLYSDKFGSENVKMIQDSGKVNPKDLDSKYAYIQVTHVIPFFDEKELQERKTEFERSHNIRRFMFEMPFTQTGKRQGGVEEQCKRRTILTAIHCFPYVKKRIPVMYQHHTDLNPIEVAIDEMSKKVAELRQLCSSAEVDMIKLQLKLQGSVSVQVNAGPLAYARAFLDDTNTKRYPDNKVKLLKEVFRQFVEACGQALAVNERLIKEDQLEYQEEMKANYREMAKELSEIMHEQICPLEEKTSVLPNSLHIFNAISGTPTSTMVHGMTSSSSVV
modifications: biotin at the amino-terminus
For the molecule B1, the dissociation constant (Kd) (commonly the constant that tells how readily two partners part at equilibrium) with GST-DLG1 fusion protein worked out at 21 µM; with GST-PSD95 fusion protein, 45 µM; with GST-NeDLG fusion protein [1], 7.5 µM. In the assay with GST-NeDLG fusion protein [2], this molecule yielded a Ka of at least 10000 M⁻¹.
